The values below come from patent US20110039770A1 (PHARMAGAP, published 2011).

Test [1] concerns the target T1, PKC-ι in extracts of human cell lines (human, UniProt P41743 2-596).
T1 construct: Denatured on the Western blot membrane; also called PKC-iota (cell extract)
T1 sequence (looked up): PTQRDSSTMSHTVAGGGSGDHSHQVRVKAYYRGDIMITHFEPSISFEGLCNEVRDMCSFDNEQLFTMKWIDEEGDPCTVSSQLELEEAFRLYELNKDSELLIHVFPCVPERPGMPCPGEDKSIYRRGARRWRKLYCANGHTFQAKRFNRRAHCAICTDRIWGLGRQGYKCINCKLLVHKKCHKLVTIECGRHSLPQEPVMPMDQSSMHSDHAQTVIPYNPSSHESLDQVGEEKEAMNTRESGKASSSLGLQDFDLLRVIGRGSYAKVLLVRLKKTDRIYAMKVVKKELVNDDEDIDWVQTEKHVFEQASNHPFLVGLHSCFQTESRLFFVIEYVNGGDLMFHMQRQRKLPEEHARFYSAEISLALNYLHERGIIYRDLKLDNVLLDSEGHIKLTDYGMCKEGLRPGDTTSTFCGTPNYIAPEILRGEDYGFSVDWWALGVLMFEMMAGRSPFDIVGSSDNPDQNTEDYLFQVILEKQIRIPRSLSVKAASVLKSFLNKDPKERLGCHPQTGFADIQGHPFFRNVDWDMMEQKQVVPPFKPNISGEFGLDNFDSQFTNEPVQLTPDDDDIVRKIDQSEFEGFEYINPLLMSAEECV
Briefly: Western-blot competition, cell extracts: PRE at 10X/20X the anti-PKC iota primary antibody concentration competes with that antibody; band densitometry (lower band = PRE bound).

In test [2] the target is T2, PKC-βI in extracts of human cell lines (human, UniProt P05771-1 2-671).
T2 construct: Denatured on the Western blot membrane; beta I splice form; also called PKC-beta I (cell extract)
Briefly: Western-blot competition, cell extracts: PRE at 10X/20X the anti-PKC beta I primary antibody concentration competes with that antibody; band densitometry (lower band = PRE bound).

The target in test [3] is T3, PKC-ε, purified isoform (UniProt Q02156 1-737).
T3 construct: also called PKC-epsilon; epsilon
T3 sequence (looked up): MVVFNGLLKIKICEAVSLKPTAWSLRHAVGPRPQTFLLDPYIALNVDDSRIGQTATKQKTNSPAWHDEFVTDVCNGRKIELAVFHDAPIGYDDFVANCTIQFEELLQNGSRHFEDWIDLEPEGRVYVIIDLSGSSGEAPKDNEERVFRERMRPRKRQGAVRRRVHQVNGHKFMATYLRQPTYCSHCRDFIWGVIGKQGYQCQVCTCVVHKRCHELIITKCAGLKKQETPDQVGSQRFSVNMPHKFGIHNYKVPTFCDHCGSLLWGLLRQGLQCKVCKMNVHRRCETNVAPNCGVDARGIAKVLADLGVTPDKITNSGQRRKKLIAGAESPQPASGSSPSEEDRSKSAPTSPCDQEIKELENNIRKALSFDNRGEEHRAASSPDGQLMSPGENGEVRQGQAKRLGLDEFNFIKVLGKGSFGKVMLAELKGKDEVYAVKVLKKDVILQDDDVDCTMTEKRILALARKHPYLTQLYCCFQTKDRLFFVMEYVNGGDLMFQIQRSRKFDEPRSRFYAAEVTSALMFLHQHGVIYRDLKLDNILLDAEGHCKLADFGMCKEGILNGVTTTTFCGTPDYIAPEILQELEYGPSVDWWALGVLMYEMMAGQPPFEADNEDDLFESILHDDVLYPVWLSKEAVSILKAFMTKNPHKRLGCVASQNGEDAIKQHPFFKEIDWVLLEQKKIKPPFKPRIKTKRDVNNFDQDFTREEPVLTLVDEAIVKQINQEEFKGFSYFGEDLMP
Briefly: competition ELISA on coated purified PKC-ε vs anti-PKC ε antibody; PRE 50 µM. (In general: An ELISA detects its analyte on a solid surface through an enzyme-linked reagent.)

Test [4] has as its target T3, PKC-ε, purified isoform. Briefly: competition ELISA on coated purified PKC-ε vs anti-PKC ε antibody; PRE 200 µM.
Test [5] concerns the target T4, PKC-ζ in extracts of human cell lines (human, UniProt Q05513 1-592).
T4 construct: Denatured on the Western blot membrane; also called PKC-zeta (cell extract)
T4 sequence (looked up): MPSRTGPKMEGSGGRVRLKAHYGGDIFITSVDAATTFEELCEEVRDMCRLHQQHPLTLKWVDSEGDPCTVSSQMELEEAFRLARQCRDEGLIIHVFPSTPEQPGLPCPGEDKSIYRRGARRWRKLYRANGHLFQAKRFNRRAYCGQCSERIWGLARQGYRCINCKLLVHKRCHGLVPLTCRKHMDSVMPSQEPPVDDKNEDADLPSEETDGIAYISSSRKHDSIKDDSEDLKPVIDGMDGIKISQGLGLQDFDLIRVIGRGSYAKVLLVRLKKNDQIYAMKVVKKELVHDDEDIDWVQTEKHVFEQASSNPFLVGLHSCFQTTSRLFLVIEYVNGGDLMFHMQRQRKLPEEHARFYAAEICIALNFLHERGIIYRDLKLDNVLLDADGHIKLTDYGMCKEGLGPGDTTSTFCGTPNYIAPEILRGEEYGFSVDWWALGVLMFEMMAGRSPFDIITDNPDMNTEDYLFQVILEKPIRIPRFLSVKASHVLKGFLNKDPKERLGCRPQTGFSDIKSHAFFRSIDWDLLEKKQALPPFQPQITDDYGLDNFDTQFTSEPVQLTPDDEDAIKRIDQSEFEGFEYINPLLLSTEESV
As to the kind of experiment: Western-blot competition, cell extracts: PRE at 10X/20X the anti-PKC zeta primary antibody concentration competes with that antibody; band densitometry (lower band = PRE bound).

Test [6] deals with T5, PKC-ε in extracts of human cell lines (human, UniProt Q02156 1-737).
T5 construct: Denatured on the Western blot membrane; also called PKC-epsilon (cell extract)
T5 sequence (looked up): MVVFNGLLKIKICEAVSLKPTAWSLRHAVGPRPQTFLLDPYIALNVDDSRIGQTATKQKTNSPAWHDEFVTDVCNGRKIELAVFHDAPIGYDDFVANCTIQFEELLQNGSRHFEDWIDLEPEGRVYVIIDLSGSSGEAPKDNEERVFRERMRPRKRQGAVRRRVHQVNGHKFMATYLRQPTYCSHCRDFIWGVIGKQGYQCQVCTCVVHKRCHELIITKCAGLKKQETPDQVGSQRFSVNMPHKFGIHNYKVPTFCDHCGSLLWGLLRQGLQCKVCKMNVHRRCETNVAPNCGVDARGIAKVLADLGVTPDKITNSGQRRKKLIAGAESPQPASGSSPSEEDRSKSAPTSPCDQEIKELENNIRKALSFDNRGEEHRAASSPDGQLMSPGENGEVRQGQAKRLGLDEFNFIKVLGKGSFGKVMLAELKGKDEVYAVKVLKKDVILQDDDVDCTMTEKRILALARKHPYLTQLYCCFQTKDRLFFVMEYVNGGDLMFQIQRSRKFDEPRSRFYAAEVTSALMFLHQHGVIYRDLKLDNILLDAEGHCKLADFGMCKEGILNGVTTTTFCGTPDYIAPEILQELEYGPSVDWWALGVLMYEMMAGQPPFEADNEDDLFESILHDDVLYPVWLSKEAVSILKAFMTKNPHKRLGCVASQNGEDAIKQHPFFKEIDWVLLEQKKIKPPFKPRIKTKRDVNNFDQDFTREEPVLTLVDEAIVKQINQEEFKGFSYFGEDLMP
As to the kind of experiment: Western-blot competition, cell extracts: PRE at 10X/20X the anti-PKC epsilon primary antibody concentration competes with that antibody; band densitometry (lower band = PRE bound).

Test [7] addresses T3, PKC-ε, purified isoform. As to the kind of experiment: competition ELISA on coated purified PKC-ε vs anti-PKC ε antibody; PRE 100 µM.
In test [8] the target is T3, PKC-ε, purified isoform. Briefly: purified isoform competition ELISA, summary grade.
Another test deals with T6, PKC-βI, purified isoform (UniProt P05771-1 1-671).
T6 construct: also called PKC-beta I; beta 1
As to the kind of experiment: purified isoform competition ELISA, summary grade.

A further test addresses T7, PKC-α, purified isoform (UniProt P17252 1-672).
T7 construct: also called PKC-alpha; protein kinase C alpha
As to the kind of experiment: purified isoform competition ELISA, summary grade.

T2 sequence (P05771 2-671 limits assumed): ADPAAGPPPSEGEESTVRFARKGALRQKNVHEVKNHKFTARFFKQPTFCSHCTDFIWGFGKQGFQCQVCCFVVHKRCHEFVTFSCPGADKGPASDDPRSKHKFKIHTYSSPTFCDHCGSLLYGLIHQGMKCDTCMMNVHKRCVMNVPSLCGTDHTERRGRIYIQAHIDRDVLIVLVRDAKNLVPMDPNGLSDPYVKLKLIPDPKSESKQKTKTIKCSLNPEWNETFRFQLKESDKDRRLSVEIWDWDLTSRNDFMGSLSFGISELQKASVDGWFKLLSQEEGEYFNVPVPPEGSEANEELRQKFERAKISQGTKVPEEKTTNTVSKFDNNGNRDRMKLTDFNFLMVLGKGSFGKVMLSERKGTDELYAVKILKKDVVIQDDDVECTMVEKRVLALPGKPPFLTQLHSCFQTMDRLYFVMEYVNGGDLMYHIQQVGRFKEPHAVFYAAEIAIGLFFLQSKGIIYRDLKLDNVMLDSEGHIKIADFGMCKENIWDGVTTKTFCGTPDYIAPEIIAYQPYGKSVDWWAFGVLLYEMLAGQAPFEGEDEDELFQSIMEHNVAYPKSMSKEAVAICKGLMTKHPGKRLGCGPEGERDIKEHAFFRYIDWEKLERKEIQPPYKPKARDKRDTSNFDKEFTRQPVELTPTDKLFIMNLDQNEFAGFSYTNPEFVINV
T6 sequence (P05771 whole entry, canonical isoform): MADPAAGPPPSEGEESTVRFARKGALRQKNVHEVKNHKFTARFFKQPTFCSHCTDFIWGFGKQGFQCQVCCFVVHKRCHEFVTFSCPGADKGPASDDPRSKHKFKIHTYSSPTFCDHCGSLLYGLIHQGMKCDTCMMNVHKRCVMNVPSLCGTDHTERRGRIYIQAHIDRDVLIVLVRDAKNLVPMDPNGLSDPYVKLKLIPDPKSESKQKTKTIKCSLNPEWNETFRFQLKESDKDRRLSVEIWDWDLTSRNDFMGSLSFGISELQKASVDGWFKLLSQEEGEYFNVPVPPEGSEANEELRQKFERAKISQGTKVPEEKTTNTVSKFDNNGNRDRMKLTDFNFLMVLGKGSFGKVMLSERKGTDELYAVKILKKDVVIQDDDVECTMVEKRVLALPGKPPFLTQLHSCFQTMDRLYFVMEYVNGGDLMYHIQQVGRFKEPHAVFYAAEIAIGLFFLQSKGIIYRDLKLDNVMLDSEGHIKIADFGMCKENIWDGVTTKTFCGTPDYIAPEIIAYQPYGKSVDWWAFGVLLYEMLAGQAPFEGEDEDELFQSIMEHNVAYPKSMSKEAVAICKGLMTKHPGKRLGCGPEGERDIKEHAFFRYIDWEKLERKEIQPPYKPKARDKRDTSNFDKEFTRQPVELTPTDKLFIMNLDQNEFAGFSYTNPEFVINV

B1: PRE 12 (peptide)
peptide: Ac-KDAQNLI-NH2
notes: Ac-KDAQNLI-NH2; also called peptide recognition element 12
As to B1, the binding result in test [1] is “no binding (tested: 20X the primary antibody concentration)”; in test [2], “no binding (tested: 20X the primary antibody concentration)”; in test [5], “binds”; in test [6] it was “no binding (tested: 20X the primary antibody concentration)”; in the test with PKC-ε, purified isoform [8] it was “no binding”; with PKC-βI, purified isoform it was “no binding”. Besides, the binding result in the test with PKC-α, purified isoform is “no binding”. The relative binding capacity in the test with PKC-ε, purified isoform [3] worked out at 10.4%; in the test with PKC-ε, purified isoform [4], 0%; in the test with PKC-ε, purified isoform [7], 0.28%.
